Laboratory results from patent publication US20100226906.

Legend:
[1] = biological target: T1, synthetic gamma poly-glutamate peptide of 30 L-glutamate residues
T1 chain: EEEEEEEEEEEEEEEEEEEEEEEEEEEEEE

[2] = biological target: T2, synthetic gamma poly-glutamate 30mer containing both D- and L-glutamate (15 D- and 15 L-residues) (not fully specified)
T2 chain: T1 chain

[3] = biological target: T3, synthetic gamma poly-glutamate peptide of 30 D-glutamate residues
T3 chain: T1 chain

B1: recombinant poly-γ-glutamate hydrolase (PghP) of bacteriophage φNIT1 (protein)
chain: MAQTDTYPNIEALENAETVGVAYNIEVKRQNPSMIYFSPHAGGIEVGTTELIYRVVELTGGSLYLFQGLLPSGNSRLHVTSTHFDEPMAVCMLSKHTDAVSFHGYKDDYNKNTLVGGLNTELRNLIVSKLNSKGIAAEVATDRFTATDPDNIVNRCASGKGVQLEISSAQRRAFFQNNDWSKANRGNVTQEFLDYAEAIKEAEAEYYG
- hydrolysis of synthetic 30mer (digestion with purified enzyme, SDS tricine PAGE) [1]: complete hydrolysis of L- and 30mers containing both D- and L-was observed
- hydrolysis of synthetic 30mer (digestion with purified enzyme, SDS tricine PAGE) [2]: complete hydrolysis of L- and 30mers containing both D- and L-was observed
- hydrolysis of synthetic 30mer (digestion with purified enzyme, SDS tricine PAGE) [3]: No hydrolysis of the D-polyglutamate was seen
